The target of test [1] is first bromodomain (BD1) of BRD4, wild type (human, UniProt O60885). Description: ITC. On the technique in general: In ITC the heat of successive injections is recorded.
Test [2] has as its target first bromodomain (BD1) of BRD3, wild type (human, UniProt Q15059). The experiment in a line: ITC.

No end group written: not given here.

first bromodomain (BD1) of BRD3, wild type, sequence (Q15059 24-144): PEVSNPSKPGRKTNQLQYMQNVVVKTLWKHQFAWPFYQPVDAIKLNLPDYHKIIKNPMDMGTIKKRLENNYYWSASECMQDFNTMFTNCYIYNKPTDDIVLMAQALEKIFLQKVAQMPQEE

B1: diacetylated ILF3 peptide 10 (AKacGLLLKacG) (peptide)
peptide: AK(Ac)GLLLK(Ac)G
As a reminder, the Kd is a measure of binding affinity in units of concentration. Low values mean higher affinity, high ones lower affinity. Take B1: in test [1], the Kd was found to be 167 ± 28 µM. Further, in test [2], the binding result is reported as “binds”.

B2: ILF3 variant peptide AKacGALLKacG (aa 99-106) 15 carrying L102A (peptide)
peptide: AK(Ac)GALLK(Ac)G
In the case of B2, in test [1], the Kd was found to be 60 ± 10 µM.

(Values after doi:10.1101/2021.07.28.453719 (bioRxiv, 2021).)
